Experimental data reported in patent US20210246224A1 (Regeneron, published 2021).

B1: H4H25018D-SMCC-DM1 (bispecific antibody, IgG4, V domains shown)
VH 1: QVQLQESGPGLVKPSQTLSLTCTVSGGSISSGHYFWSWIRQHPGKGLEWIGYIFYSGSTHYNPSLKSRLSISVDTSKNQFSLRLTSVTAADTAVYYCAREEGDYNFWDVDYVPGHFDYWGQGTLVTVSS
VH 2: EVQLVESGGGLVQPGRSLRLSCVASGFTFADYAMHWVRQAPGKGLEWVSGISWNSGNIDYADSVKGRFTISRDNAKNSLYLQMNSLRTEDTALYYCAKVRIVVAGYYYYYYGMDVWGQGTTVTVSS
VL: not shown
modifications: SMCC-DM1 on lysines, sites not stated
B2: H4H25019D-SMCC-DM1 (bispecific antibody, V domains shown)
VH 1: QVQLVQSGPEVKKPGASVKVSCKASGYTFPNFGISWVRQAPGQGLEWMGWIAPYNVATNYAPKLQGRVTMTTDTSTSTAYMELRSLRSDDTAVYYCARWGAGYMGYYYYGMDVWGQGTTVTVSS
VH 2: EVQLVESGGGLVQPGRSLRLSCVASGFTFADYAMHWVRQAPGKGLEWVSGISWNSGNIDYADSVKGRFTISRDNAKNSLYLQMNSLRTEDTALYYCAKVRIVVAGYYYYYYGMDVWGQGTTVTVSS
VL: not shown
modifications: SMCC-DM1 on lysines, sites not stated
B3: H4H25018D-Compound I (bispecific antibody, V domains shown)
VH 1: QVQLQESGPGLVKPSQTLSLTCTVSGGSISSGHYFWSWIRQHPGKGLEWIGYIFYSGSTHYNPSLKSRLSISVDTSKNQFSLRLTSVTAADTAVYYCAREEGDYNFWDVDYVPGHFDYWGQGTLVTVSS
VH 2: EVQLVESGGGLVQPGRSLRLSCVASGFTFADYAMHWVRQAPGKGLEWVSGISWNSGNIDYADSVKGRFTISRDNAKNSLYLQMNSLRTEDTALYYCAKVRIVVAGYYYYYYGMDVWGQGTTVTVSS
VL: not shown
modifications: Compound I on lysines, sites not stated
B4: H4H25019D-Compound I (bispecific antibody, V domains shown)
VH 1: QVQLVQSGPEVKKPGASVKVSCKASGYTFPNFGISWVRQAPGQGLEWMGWIAPYNVATNYAPKLQGRVTMTTDTSTSTAYMELRSLRSDDTAVYYCARWGAGYMGYYYYGMDVWGQGTTVTVSS
VH 2: EVQLVESGGGLVQPGRSLRLSCVASGFTFADYAMHWVRQAPGKGLEWVSGISWNSGNIDYADSVKGRFTISRDNAKNSLYLQMNSLRTEDTALYYCAKVRIVVAGYYYYYYGMDVWGQGTTVTVSS
VL: not shown
modifications: Compound I on lysines, sites not stated
B5: H4H25018D-Compound II (bispecific antibody, V domains shown)
VH 1: QVQLQESGPGLVKPSQTLSLTCTVSGGSISSGHYFWSWIRQHPGKGLEWIGYIFYSGSTHYNPSLKSRLSISVDTSKNQFSLRLTSVTAADTAVYYCAREEGDYNFWDVDYVPGHFDYWGQGTLVTVSS
VH 2: EVQLVESGGGLVQPGRSLRLSCVASGFTFADYAMHWVRQAPGKGLEWVSGISWNSGNIDYADSVKGRFTISRDNAKNSLYLQMNSLRTEDTALYYCAKVRIVVAGYYYYYYGMDVWGQGTTVTVSS
VL: not shown
modifications: Compound II on reduced interchain cysteines
B6: H4H25019D-Compound II (bispecific antibody, V domains shown)
VH 1: QVQLVQSGPEVKKPGASVKVSCKASGYTFPNFGISWVRQAPGQGLEWMGWIAPYNVATNYAPKLQGRVTMTTDTSTSTAYMELRSLRSDDTAVYYCARWGAGYMGYYYYGMDVWGQGTTVTVSS
VH 2: EVQLVESGGGLVQPGRSLRLSCVASGFTFADYAMHWVRQAPGKGLEWVSGISWNSGNIDYADSVKGRFTISRDNAKNSLYLQMNSLRTEDTALYYCAKVRIVVAGYYYYYYGMDVWGQGTTVTVSS
VL: not shown
modifications: Compound II on reduced interchain cysteines
B7: H4H25014D (bispecific antibody, IgG4, V domains shown)
VH 1: QVQLQESGPGLVKPSQTLSLTCTVSGGSISSGHYFWSWIRQHPGKGLEWIGYIFYSGSTHYNPSLKSRLSISVDTSKNQFSLRLTSVTAADTAVYYCAREEGDYNFWDVDYVPGHFDYWGQGTLVTVSS
VH 2: EVQLVESGGGLVQPGGSLRLSCAASGFTFSTYVMSWVRQAPGKGPEWVSGISGRTGTTYYADSVKGRFTISRDNSKNTLYLQMNSLRAEDTAVYYCASRITAAGRGYYYYYGMDVWGRGTTVTVSS
VL: not shown
notes: Wild-type kappa CL and a modified (chimeric) IgG4 CH domain as set forth in US20140243504A1; also called bispecific anti-HER2xAPLP2 antibody
B8: H4xH21371P2 (antibody, V domains shown)
VH: QVQLVQSGVEVKKPGASVKVSCKASGYTFTDYGISWVRQAPGQGLEWMGWISAHNGNTNYAQKLQGRVTMTTDTSTNTAYMELRSLRSDDTAVYYCARRNWKYFDYWGQGTLVTVSS
VL: not shown
notes: fully human antibody; also called anti-APLP2 parental antibody
B9: H4xH21387P2 (antibody, V domains shown)
VH: EVQLVESGGGLVQPGRSLRLSCVASGFTFADYAMHWVRQAPGKGLEWVSGISWNSGNIDYADSVKGRFTISRDNAKNSLYLQMNSLRTEDTALYYCAKVRIVVAGYYYYYYGMDVWGQGTTVTVSS
VL: not shown
notes: as for B8
B10: H4xH21362P2 (antibody, V domains shown)
VH: EVQLVESGGGLVQPGGSLRLSCAASGFTFSTYVMSWVRQAPGKGPEWVSGISGRTGTTYYADSVKGRFTISRDNSKNTLYLQMNSLRAEDTAVYYCASRITAAGRGYYYYYGMDVWGRGTTVTVSS
VL: not shown
notes: as for B8
B11: H4H13055P2 (antibody, V domains shown)
VH: QVQLQESGPGLVKPSQTLSLTCTVSGGSISSGHYFWSWIRQHPGKGLEWIGYIFYSGSTHYNPSLKSRLSISVDTSKNQFSLRLTSVTAADTAVYYCAREEGDYNFWDVDYVPGHFDYWGQGTLVTVSS
VL: not shown
notes: fully human antibody; also called anti-HER2 parental antibody
B12: H4H13050P2 (antibody, V domains shown)
VH: QVQLVQSGPEVKKPGASVKVSCKASGYTFPNFGISWVRQAPGQGLEWMGWIAPYNVATNYAPKLQGRVTMTTDTSTSTAYMELRSLRSDDTAVYYCARWGAGYMGYYYYGMDVWGQGTTVTVSS
VL: not shown
notes: Names starting with H4 or H4H denote fully human antibodies; also called anti-HER2 parental antibody

Tests used:
[1] = target: T1, human HER2 expressed on cells (cancer cell lines and normal primary cultures) (human, UniProt P04626 23-1255); experiment: cell-based or functional assay
[2] = target: T1, human HER2 expressed on cells (cancer …); experiment: imaging, Alexa647-labelled antibody 10 ug/mL at 4 C on MCF7 cells; signal per nuclei, normalised to the highest cell line
Procedure: (§1) After, cells were washed twice with cold DMEM+10% FBS. […] After, the solution was replaced with DPBS/CM. Binding of the bispecific antibodies to each of the cell types was measured using an Image Xpress^Micro automatic microscope (Molecular Devices). […] (See also FIG. 2.)
(§2) The signal of antibody binding (mean intensity fluorescence of Alexa647) divided by the nuclei signals was determined for each condition using MetaXpress software (Molecular Devices). Values were normalized to the cell line displaying the highest antibody binding signal.

[3] = target: T2, human APLP2 extracellular domain expressed with a C-terminal myc-myc-hexahistidine tag (human, UniProt Q06481 32-692); experiment: SPR, antibody captured, hAPLP2-MMH injected, 25 C
T2 construct: also called hAPLP2-MMH; APLP2.mmh

[4] = target: T2, human APLP2 extracellular domain …; experiment: SPR (Biacore 4000), antibody captured on anti-human Fc, hAPLP2-MMH injected, 37 C
Procedure: (§3) Equilibrium dissociation constants (KD values) for HER2 and APLP2 binding to purified anti-HER2xAPLP2 bispecific and parental antibodies were determined using a real-time surface plasmon resonance biosensor using a Biacore 4000 instrument. The Biacore sensor surface was first derivatized by amine coupling with a monoclonal mouse anti-human Fc antibody (GE, Cat #BR-1008-39) to capture anti-HER2xAPLP2 bispecific monoclonal antibodies. […] Kinetic association rate constant (ka) and dissociation rate constant (kd) were determined by fitting the real-time sensorgrams to a 1:1 binding model using Scrubber 2.0c curve fitting software. Binding dissociation equilibrium constants (KD) and dissociative half-lives (t1/2) were calculated from the kinetic rate constants as: […]

[5] = target: T1, human HER2 expressed on cells (cancer …); experiment: imaging, Alexa647-labelled antibody 10 ug/mL at 4 C on SKBR3 cells; signal per nuclei, normalised to the highest cell line
Procedure: To test the ability of bispecific anti-HER2xAPLP2 molecules described herein to bind to cells lines expressing various levels of HER2, a high content imaging assay was performed. […] Cells were plated on collagen-coated, black wall, 96-well, optical plates (Greiner, Cat #655936) at 2.5×10⁵ cells per well in their appropriate culture media, which is described for each cell line/culture in Table 6, and incubated overnight at 37° C. in 5% CO₂.
as §1, §2

[6] = target: T1, human HER2 expressed on cells (cancer …); experiment: imaging, Alexa647-labelled antibody 10 ug/mL at 4 C on NLE cells; signal per nuclei, normalised to the highest cell line
Procedure: as §1, §2

[7] = target: T1, human HER2 expressed on cells (cancer …); experiment: imaging, Alexa647-labelled antibody 10 ug/mL at 4 C on JIMT-1 cells; signal per nuclei, normalised to the highest cell line
Procedure: as §1, §2

[8] = target: T1, human HER2 expressed on cells (cancer …); experiment: imaging, Alexa647-labelled antibody 10 ug/mL at 4 C on T47D cells; signal per nuclei, normalised to the highest cell line
Procedure: as §1, §2

[9] = target: T1, human HER2 expressed on cells (cancer …); experiment: imaging, Alexa647-labelled antibody 10 ug/mL at 4 C on MDA-MB-361 cells; signal per nuclei, normalised to the highest cell line
Procedure: as §1, §2

[10] = target: T1, human HER2 expressed on cells (cancer …); experiment: imaging, Alexa647-labelled antibody 10 ug/mL at 4 C on MDA-MB-453 cells; signal per nuclei, normalised to the highest cell line
Procedure: as §1, §2

[11] = target: T3, human HER2 extracellular domain expressed with a C-terminal myc-myc-hexahistidine tag (human, UniProt P04626 23-652); experiment: SPR (Biacore 4000), antibody captured on anti-human Fc, hHER2-MMH injected, 37 C
T3 construct: also called hHER2-MMH; HER2.mmh
Procedure: as §3

[12] = target: T1, human HER2 expressed on cells (cancer …); experiment: imaging, Alexa647-labelled antibody 10 ug/mL at 4 C on NBE cells; signal per nuclei, normalised to the highest cell line
Procedure: as §1, §2

Row | Binder | IC50 (nM) of cell killing, JIMT-1 cells, 6 days, nuclei count [1] [nM] | 90 nM hAPLP2-MMH Bound (RU) [3] [RU] | Kd [3] [nM] | t½ [3] [min] | 100 nM hAPLP2-MMH Bound (RU) [4] [RU] | Kd [4] [nM] | t½ [4] [min] | other results
1 | B1 | 0.07 |  |  |  |  |  |  | 
2 | B2 | 0.13 |  |  |  |  |  |  | 
3 | B3 | 0.2 |  |  |  |  |  |  | 
4 | B4 | 0.75 |  |  |  |  |  |  | 
5 | B5 | 0.3 |  |  |  |  |  |  | 
6 | B6 | 0.9 |  |  |  |  |  |  | 
7 | B7 |  | 17.1 | 9.98 | 12.2 | 23 | 235 | 1.1 | Antibody bound (% of highest) [2]: 5%; Antibody bound (% of highest) [5]: 100%; Antibody bound (% of highest) [6]: 4%; Antibody bound (% of highest) [7]: 17%; Antibody bound (% of highest) [8]: 6%; Antibody bound (% of highest) [9]: 30%; Antibody bound (% of highest) [10]: 25%; Kd [11]: 3.37 nM; t½ [11]: 16 min; Antibody bound (% of highest) [12]: 5%
8 | B8 |  | 52.1 | 21.7 | 0.5 | 48 | 899 | 0.03 | 
9 | B9 |  | 60.5 | 11.3 | 11 | 114 | 124 | 1.1 | 
10 | B10 |  | 36.6 | 11.2 | 10.9 | 34 | 176 | 1.3 | 
11 | B11 |  |  |  |  | 0 |  |  | binding result [4]: no binding (tested: 300 nM highest concentration injected)
12 | B12 |  |  |  |  | -3 |  |  | 
